According to publication PMC5216731:
pKd: −log10 of the molar value.

Biological target: GST-obscurin-PH (human) (UniProt Q5VST9)
Assay: SPR; Biacore 3000; GST-obscurin-PH immobilised on a CM5 chip, HIS-PI3K-p85/SH3 as analyte at 8-250 nM, 20 ul/min, 180 s association, 180 s dissociation; 1:1 Langmuir model

UniProt Q5VST9, sequence (Q5VST9 5895-6004): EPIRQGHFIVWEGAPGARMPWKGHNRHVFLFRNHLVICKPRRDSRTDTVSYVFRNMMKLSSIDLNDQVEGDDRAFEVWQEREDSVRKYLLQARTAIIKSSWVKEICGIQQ

pKd: 7.30
Substance: HIS-PI3K/p85-SH3 (from UniProt O00459 4-80) (domain or fragment)
